# Measurements from the nanobody polyreactivity screen of Harvey et al. (2022).
# Experiment: yeast display, Sf9 membrane polyspecificity reagent, FACS + sequencing; frameworks hold sequencing errors
# Outline: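 After 36–48 hours of galactose induction, yeast (Saccharomyces cerevisiae BJ5465) displaying a synthetic nanobody library were stained at 4 °C for 1 hour with 10% biotinylated, detergent-solubilized Sf9 membrane reagent. Streptavidin microbeads enriched the stained cells before FACS sorting into low and high (top ~1%) gates on anti-HA and streptavidin fluorescence. Each clone's polyreactivity label reflects its gate of origin.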
row,Sequence,polyreactivity (PSR sort gate)
1,QVQLVESGGGLVQAGGSLRLSCAASGRIFSRYAMGWYRQAPGKERELVAAISKSGGRTYYADSVKGRFTISRDNAKNTVYLQKNSLKPEDTAVYYCATVIFRSSGYYYWGQGTQVTVSS,high polyreactivity
2,QVQLVESGGGLVQAGGSLRLSCAASGSTLVLNAMGWYRPATGKERELVAAITISGDTTYYADSVKGRFTISRDNAKNTVYLQMNCLKPEDTAVYYCAAVVSTVDCMEYWGQGTQVTVSS,low polyreactivity
3,QVQLVESGGGLVQAGGSLRLSCAASGSTFGGYAKGWYRQAPGKERELVAAISGSGVRTYYADSVKGRFTISRDNAKNTVYLQMNSLKPEDTAVYYCAKRVRYPGDRYYYWGQGTQVTVSS,high polyreactivity
4,QVQLVESGGGLVQAGGSLRLSCAASGRTFFPYAMGWYRQAPGKEREFVAAITKTDDSTYYADSVKGRFTISRDNAKNTVYLQMNSLKPEDTAVYYCAADTSRSVSVFIVWYWLGYWGQGTQVTVSS,low polyreactivity
5,QVQLVESGGGLVQAGGSLRLSCAASGRTFVYTMGWYRQAPGKERELVAAIRYSGGRTYYADSVKGRFTISRDNAKNTVYLQMNSLKPEDTAVYYCAARNYATGVRYDYWGQGTQVTVSS,high polyreactivity
6,QVQLVVSGGGLVQAGGTLRLSCAASGSILSDNGMGWYRQAPGKERELVASIRTGDITKYADCVKGRFTISRDNAKNTVDLQMTSLKPEDTAVYYCAAAGRVQYTRKYYGWRNRNDYWGQGTQVTVSS,low polyreactivity
7,QVQLVESGGGLVQAGGSLRLSCAASGRIFGTYAMGWYRQAPGKERELVAAITSGGRTYYADSVKGRFTISRDNAKNTVYLQMNSLKPEDTAVYYCNAVRYYVYDRRFNYWGQGTQVTVSS,high polyreactivity
8,QVQLVESGGGLVQAGGSLRLSCAASGSIFYGYAMGWYRQAPGKERELVAAITWSGGSTYYADSVKGRFTISRDNAKNTVYLQINSLKPEDTAVYYCNAVSTRFRVRTSDYWGQGTQVTVSS,high polyreactivity
9,QVQLVESGGGLVQAGGSLRLSCAASGRTFEGNAMGWSRQAPGKERELVAAISGSGGRTYYADSVKGRFTISRDNAKNTVYLQMNSLKPEDTAVYYATLYSVYNPWRFNYWGQGTQVTVSS,high polyreactivity
10,QVQLVESWGGLVQAGGSLRLSCAASGRTFDRYDMGWYRQAPGKERELVATISSSGGSTYYADSVKGRFTISRDNAKNTVYLQMNSLKPEDTAVYYCAADPSGDYWGQGTQVTVSS,low polyreactivity
11,QVQLVESGGGLVQAGGSLRLSSAASGSTFYYNTMGWSRQAPGKERELVAAISSSGGTTYYADSVKGRFTISRDNAKNTVYLQMNSLKPEDTAVYYCNVATIWYSYARGYGYWGQGTQVTVSS,high polyreactivity
12,QVQLVESGGGLVQAGGSLRLSCAASGSIFEYYAMGWYRTAPGKERELVAAISSGGPTYYADSVKGRFTISRDNAKNTVYLQMNSLKPEDSAVYYCNADLWYPDYDYWGQGTQVTVSS,low polyreactivity
13,QVQLVESGGGLVQAGGSLRLSCAASGRIFDYYAMGWYRQAPGKERELVAVISGSGGTYYADSVKGRFTISRDNAKNTVYLQMNSLKPEDTAVYYCNAAVTSYPGYEYWGQGTQVTVSS,low polyreactivity
14,QVQLVESGGGLVQAGGSLRLSCAASGRTFWNYAMGWYIQAPGKEREFVAVIRFSDGSTYYADSVKGRFTISRDNAKNTVYLQMNSLKPEDTAVYYCAAKGPRRWGSGFDYWGQGTQLTVSS,low polyreactivity
15,QVQLVESGGGLVQAGGSLRLSCAASGRTFTHYAMGWYRQAPGKERELVAVITTGGSTYYADSVKGRFTISRDNAKNTVYLQMNSLKPEDTAVYYCAATALSGLGYWGQGTQVTVSS,low polyreactivity
16,QVQLVESGGGLVQAGGSLRLSCAASGFIFQKYAMGWYRQAPGKERELVAAISRSGGSTYYADSVKGRFTISRDNAKNTVYLQMNSLKPEDTAVYYCNAVYSTSRDYWGQGTQVTVSS,high polyreactivity
17,QVQLVESGGGLLQAGGSLRLICAASGRIFQTYAMGWYRQAPGKERELVARIRLSGGSTYSADSVKGRFTISRDNAKNTGYLQKNSQKPEDTAVYSCAARFSRARFTDPYYYWGQGTQVTVSS,high polyreactivity
18,QVQLVESGGGLVQAGGSLRLSCAASGSIFGGYAMGWYRQAPGKERELVAAITSSGGRTYYADSVKGRFTISRDNAKNTVYLQMNSLKPEDTAVYYCAASPNYYYYYPMYYWGQGTQVTVSS,high polyreactivity
19,QVQLVESGGGLVQAGGSLRLSFAASGRIFVRYSMGWYRQAPGKERELVAAISSSGSSTYYADSVKGRFTISRDNAQNTFYLKMNCLKPEDTAVYYCAAASVRYPRYEYWGQGTQVTVSS,high polyreactivity
20,QVQLVESGGGLVQAGGSLRLSCAASGSTFHGNAMGWYRQAPGKERELVAAISRSGGSTYYADSVKGRFTISRDNAKNTVYLQMNSLKPEDTAVYYCAAETVYKWWYDYYYWGQGTQVTVSS,high polyreactivity
21,QVHLVESGGGLVQAGGSLRLSCAASGRPFSKYTMGWDRQAPGKERELVAVISRSGTRTYYADSVKGRFTISRDNAKNTVYLQMNSLKPEDTAVYYCAAKDERRSFGMGYWGQGTQVTVSS,high polyreactivity
22,QVQLVESGGGLVQAGGSLRLSCAASGRIFREYAMGWYRQAPGKERELVAAISSGASTYADSVKGRFTISRDNAKNTVYLQMNSLKPEDTAVYYCAKDIKLGPVGHSKYHRYDYWGQGTQVTVSS,low polyreactivity

row,Sequence,polyreactivity (PSR sort gate)
1,QVQLVESGGGLVQAGGSLRLSCAASGLIFTWNAMGWYRQAPGKERELVAAISTGGSTSYADSVKGRFTISRDNAKNTVYLQMNSLKPEDTAVYYCARDSSIWSHGSWYDYWGQGTQVTVSS,low polyreactivity
2,QVQLVESGGGLVQAGGSLRLSCAASGIILGKNAMGWYRQAPGNERELVASITSGAGITYYADSVKGRFTISRDNAKNTVNLQINSLKPEDTAVYYCAADWSGDYFTDGYWGQGPQVTVSS,low polyreactivity
3,QVQLVESGGGLVQAGGSLRLSSAASGFILRTNAMGWYRQAPGKERELVAAISVSGGRTYYADSVKGRFTISRDNAKNTVYLQMNSLKPEDTAVDYCAARDSTKLLSGYTHYYWGQGTQVTVSS,high polyreactivity
4,QVQLVESGGGLVQAGGSLRLSCAASGLIFPRYAMGWYRQAPGKERELVAAITRGGSTYYADSVKGRFTISRDNAKNTVYLQMNSLKPEDTAVYYCNAELPVHWSWYDYWGQGTQVTVSS,low polyreactivity
5,QDLHVESGGGVVQAGGSLRVSCAASGRTFISYAMGWSRQAPGKERELVATITRDGRTNYADSVKGRFTFSRDNAKNTVYLQMNSLNAEDTAVYYCNADSRYRYDYWGQGSQVTVSS,low polyreactivity
6,QVQLVESGGGLVQAGGSLRLSCAASGRTLPKYVMGWYRQAPGKERELVAAISSSGDSTYYADSVKGRFTISRDNAKNTVYLQMNSLKPEDTAVYYCGKYDLNTYGYWGQGTQVTVSS,low polyreactivity
7,QVQLVESGGGLVQAGGSLRLSCAASGGIFPHYVMGWYRQAPGKERELVAAITWSGGRTYYADSVKGRFTISRDNAKNTVYLQMNSMKPEDTAVYYCAADPFYLTKSGGWGDYWGQGTQVTVSS,low polyreactivity
8,QVQLVESGGGLVQAGGSLRLSCAASGRIFTHNAMGWYRQAPGKERELVAAISSIGGSTYYADSVKGRFTISRDNAKNTVYLQMNSLKPEDTAVYYCAVKRPLYGDSEYYYWGQGTQVTVSS,low polyreactivity
9,QVQLVESGGGLVQAGGSLRLSCAASGFTFLTYLMGWYRQAPGKERELVASISGSGGTTYYADSVKGRFTISRDNAKNTVYLQMNSLKPEDTAVYYCAASGRYRRYYKFNYWGQGTQVTVSS,high polyreactivity
10,QVQLVESGGGLVQAGGSLRLSCAASGLTLYFYVMGWYRQAPGKERELVAAISSTGSTYYADSVKGRFSISRDNAKNTVYLQMNSLKPEDTAVYYCAARKRGWYGYWGQGTQVTVSS,high polyreactivity
11,QVQLVESGGGLVQAGGSLRLSCAASGSTFAWNAMGWYIQAPGKERELVAAISYSGGTTYYADSVKGRFTISRDNAKNTVYLQMNSLKPEDTAVYYCAKWEGHGRNPWGAGTEGDYWGQGTQVTVSS,low polyreactivity
12,QVQLVESGGGLVQAGGSLRLSCAASGSTFSVYAMGWYRQAPGKERELVATISWGGGITYYADSVKGRFTISRDNAKNTVYLQMNSLKPEDTAVYYCAAYARYPRYYYWGQGTQVTVSS,high polyreactivity
13,QVQLVDSGGGLVQAGVSLRLSCAASGSIFRGNAMGWYRQAPVKERELVAAINKSGGSTYYADSVKGRFTISRDNAKNTVYLQMNSLKQEDTAVYYCAAVYKRLQPYGYWGQGTQVTVSS,high polyreactivity
14,QVQLVESGGGLVQAGGSLRLSCAASGRIFDRYAMGWYRPAPGKERELVAASTGSGGRTYYADSVKGRFTISRDNAKNTVYLQMNSLKPEDTAVYYCARAFGQRRYYYWGQGTQVTVSS,high polyreactivity
15,QVQLVEAGGGLVQAGGSLRLSCAASGRIFRTYAMGWYRQAPGKESELVAAINISGDRTYYADSVKGRFTISRDHAKNTVYLQMNSLKPEDTAVYYCAAAGYRYWGAIYYWGQGTQVTVSS,high polyreactivity
16,QVQLVESGGGLVQAGGSLRLSCAASGITFSYNARGWYRQAPGKERELVAAIRVGDGSTYYADSVKGRFTISRDNAKNTVYLQMHSLKPEDTAVYYWNARYLRLRYPYTDEYNYWGQGTQVTVSS,low polyreactivity
17,QVQLVESVGGLVQAGGSLRLSCAASGRTFSGNAMGWYIQAPGKERELVAGISTSGGSTYYADSVKGRFTISRDNSKNTVYLQMNSLKPEDTAVYYCNARSRYRYYRSFGGDYWGQGTQVTVSS,high polyreactivity
18,QVQLVESGGGLVQAGGSLRLSCAASGSIFVGYAMGWYRQAPGKERELVAAITKRGGSTSYADSVKGRFTISRDNAKNTVYLQMNSLKPEDTAVYYCAKLYYRHLYEYDYWGQGTQVTVSS,high polyreactivity
19,QVQLVESGGGLVQAGGSLRLSCAASGRIFNGYAMGWYRQAPGKERELVAAISKSGTRTYYADSVKGRFTISRDNAKNTVYLQMTSLKPEDTAVYYCNARVYRYDTYNEYYYWGQGTQVTVSS,high polyreactivity
20,QVQLVESGGGLVQAGGSLRLSCAASGLTFFAYPMGWYRQAPGKERELVAVITSSGGSTNYADSVKGRFTISRDTPKNTVYLQMNSLKPEDTAVYYCAAYIRYTLPTSRGFGYWGQGTQVTVSS,high polyreactivity
21,QVQLVESGGGLVQAGGSLRLSCAASGSIFHYNAMGWYIQAPGKERELVASISSGGRTYYADSVKGRFTISRDNAKNTVYLQMNSLKPEDTAVYYCAAENFWQTKEYDYWGQGTQVTVSS,low polyreactivity
